The target in one assay is T1, 纤溶酶原(Plg) (UniProt P00747 20-810).
T1 construct: Free precursor, used as coating antigen in ELISA; also called Plasminogen; 游离态的Plg
Put plainly: summing-up of the examples (ELISA specificity, Example 4; table 2 not shown). (In an ELISA, binding on a coated surface is turned into a signal by an enzyme label.)

Another assay deals with T2, α2-纤溶酶抑制剂(α2-AP) (UniProt P08697 40-491, limits assumed).
T2 construct: also called α2-antiplasmin; 游离态的α2-AP
T2 sequence (looked up): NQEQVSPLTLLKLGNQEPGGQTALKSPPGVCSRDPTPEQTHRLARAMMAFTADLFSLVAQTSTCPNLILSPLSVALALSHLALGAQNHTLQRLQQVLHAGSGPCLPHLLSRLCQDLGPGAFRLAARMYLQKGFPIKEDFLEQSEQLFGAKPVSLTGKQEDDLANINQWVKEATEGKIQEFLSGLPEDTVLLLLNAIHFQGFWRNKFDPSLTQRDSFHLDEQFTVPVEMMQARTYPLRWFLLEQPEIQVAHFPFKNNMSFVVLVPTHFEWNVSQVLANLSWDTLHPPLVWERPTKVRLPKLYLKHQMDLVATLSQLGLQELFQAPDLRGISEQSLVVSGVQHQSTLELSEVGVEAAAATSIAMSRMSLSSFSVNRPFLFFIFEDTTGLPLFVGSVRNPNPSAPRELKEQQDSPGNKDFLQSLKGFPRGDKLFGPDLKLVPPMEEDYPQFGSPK
Described as above.

A further assay concerns the target T3, 纤溶酶-α2纤溶酶抑制剂复合物(PIC) (UniProt P00747 97-810; P08697 40-491, limits assumed).
T3 construct: also called PIC抗原; PIC复合物
In words: SPR (BIAcore 3000), antibody captured by goat anti-mouse IgG Fc on CM5, PIC as analyte. (In SPR one partner is held on a chip, and binding of the other changes the refractive index at the surface.)

Experimental findings from CN117126283A (SHENZHEN NEW IND BIOMEDICAL ENGINEERING CO LTD, dated 2023) are described below.

Usually Kd stands for the equilibrium constant for the complex coming apart. Higher therefore signals weaker binding. The koff is the rate constant with which the complex falls apart. By kon is commonly meant a measure of how fast the partners come together. Low values mean slow association, high ones fast association.

T3 sequence (P00747 97-810 limits assumed, one chain of several): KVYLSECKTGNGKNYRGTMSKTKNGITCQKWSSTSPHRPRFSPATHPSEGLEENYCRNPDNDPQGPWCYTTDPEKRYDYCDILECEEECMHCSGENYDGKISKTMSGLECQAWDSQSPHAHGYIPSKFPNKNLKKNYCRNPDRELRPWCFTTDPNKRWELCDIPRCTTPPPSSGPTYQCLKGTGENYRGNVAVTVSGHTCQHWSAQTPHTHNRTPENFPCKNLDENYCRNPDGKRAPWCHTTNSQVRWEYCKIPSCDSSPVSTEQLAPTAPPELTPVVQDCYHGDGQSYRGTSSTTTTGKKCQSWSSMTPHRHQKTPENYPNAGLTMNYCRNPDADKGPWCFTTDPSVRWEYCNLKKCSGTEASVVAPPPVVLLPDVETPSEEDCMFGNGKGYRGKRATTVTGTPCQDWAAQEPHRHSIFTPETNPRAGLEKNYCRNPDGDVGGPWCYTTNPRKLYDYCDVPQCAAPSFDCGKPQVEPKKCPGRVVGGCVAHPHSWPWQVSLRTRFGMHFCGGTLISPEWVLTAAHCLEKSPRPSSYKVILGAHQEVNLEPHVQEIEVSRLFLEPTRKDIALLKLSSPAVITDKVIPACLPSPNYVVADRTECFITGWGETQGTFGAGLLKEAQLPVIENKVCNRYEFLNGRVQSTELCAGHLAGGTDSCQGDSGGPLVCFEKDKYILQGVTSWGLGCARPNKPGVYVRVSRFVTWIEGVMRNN
T1 sequence (P00747 20-810 limits assumed): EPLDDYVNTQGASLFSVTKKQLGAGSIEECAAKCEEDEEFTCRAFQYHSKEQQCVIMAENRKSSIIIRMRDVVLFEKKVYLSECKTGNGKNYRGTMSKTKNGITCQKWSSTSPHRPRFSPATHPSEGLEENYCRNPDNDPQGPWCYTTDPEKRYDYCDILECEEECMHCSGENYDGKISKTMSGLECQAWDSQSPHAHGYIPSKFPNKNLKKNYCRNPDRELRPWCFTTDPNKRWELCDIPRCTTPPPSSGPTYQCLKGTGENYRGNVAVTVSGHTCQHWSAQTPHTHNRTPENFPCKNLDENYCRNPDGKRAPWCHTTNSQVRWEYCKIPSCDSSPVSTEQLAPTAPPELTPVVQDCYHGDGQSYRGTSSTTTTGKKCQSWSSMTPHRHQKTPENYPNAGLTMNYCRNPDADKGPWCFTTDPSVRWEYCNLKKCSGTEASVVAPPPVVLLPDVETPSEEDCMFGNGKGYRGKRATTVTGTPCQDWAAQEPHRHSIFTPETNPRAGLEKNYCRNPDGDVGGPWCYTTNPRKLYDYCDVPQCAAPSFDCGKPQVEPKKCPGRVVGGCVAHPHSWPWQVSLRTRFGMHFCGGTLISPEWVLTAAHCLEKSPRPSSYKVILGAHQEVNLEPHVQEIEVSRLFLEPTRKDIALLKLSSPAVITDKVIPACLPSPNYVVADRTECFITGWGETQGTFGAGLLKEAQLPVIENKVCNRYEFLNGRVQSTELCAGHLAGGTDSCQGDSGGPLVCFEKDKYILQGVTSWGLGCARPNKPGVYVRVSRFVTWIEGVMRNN

B1: PIC抗体(WT2) (antibody, mouse IgG1, kappa, V domains shown)
VH: QVQLQQPGAELVRPGASVKLSCKASGYTFTSSWMHWVKQRPEQGLEWIGYIDPYDSETHYNQKFKDKAILTVDKSSSTAYMQLSSLTSEDSAVYYCARGYDRSFDYWGQGTTLTVSS
VL: DIKMTQSPSSMFASLGERVTITCKASQDIKSFLNWYQQKPWRSPKTLIYYATSLADGVPSRFSGSGSGQDFSLTISSLESDDAATYYCLQHGESPFTFGGGTKLEIKR
notes: That VL2/VH2 belong to 5B3F6 (WT2) follows from the order of naming, not from an explicit sentence; also called 5B3F6; PIC单抗(WT2)
Take B1: the binding result with 纤溶酶原(Plg) is “no binding”. Also, the binding result in the assay with α2-纤溶酶抑制剂(α2-AP) was “no binding”. Besides, in the assay with 纤溶酶-α2纤溶酶抑制剂复合物(PIC), the Kd worked out at 1.21 nM, the koff was 9.54e-05 s⁻¹ and the kon turned out to be 78900 M⁻¹ s⁻¹.

B2: PIC抗体(WT1) (antibody, mouse IgG1, kappa, V domains shown)
VH: QVQLQQSGPELVKPGASVKLSCKASGNAFSSSWMNWVKQRPGQGLEWIGRIYPGDGDTNYNGKFKGKATLTVDKSSSTVYMQLSSLTSVDSAVYFCGRGNPTTAYAMDYWGQGTSVTVSS
VL: DIVLTQSPASLAVSLGQRATLSCRASESVDSFGYSFMHWYQQNPGQPPKLLIYRASNLESGIPARFSGSGSRTDFTLTINPVEADDVATYFCQQTNEDPYTFGGGAKLEIKR
notes: that VL1/VH1 belong to 1C2B4 (WT1) follows from the order of naming, not from an explicit sentence; also called 1C2B4; PIC单抗(WT1)
Take B2: the binding result with 纤溶酶原(Plg) is “no binding”. For the same molecule, in the assay with α2-纤溶酶抑制剂(α2-AP), the binding result was “no binding”. Besides, in the assay with 纤溶酶-α2纤溶酶抑制剂复合物(PIC), the Kd is 1.29 nM, the koff worked out at 8.54e-05 s⁻¹ and the kon was found to be 65900 M⁻¹ s⁻¹.
